Consider one substance from paper PMC2175121.

This assay deals with cell-surface GalNAcPTase (chicken (endogenous in E9 chick retina cells)).

With “Full-length neurocan fusion protein (RP) (natural protein)”, the inhibition of N-cadherin-mediated adhesion of E9 retina cells, RP at 20 μg/ml is 60%.
